± gives the standard error. For some of these results: This sample holds only a part of the variants without activity.
B1: glmS ribozyme (parent)
chain: AUAAAAGCGCCAGAACUACAGAAAUGUAGUUGACGAGGAGGAGGUUUAUCGAAUUUUCGGCGGAUGCCUCCAAA

Experiments:
Settings in all cases: with glucosamine-6-phosphate
glucosamine-6-phosphate [1] = variants of: B1; assay: kcat; higher = faster cleavage; RNA array
In short: (§1)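 Tiles bearing barcoded ribozyme variants, transcribed in situ by E. coli RNA polymerase on sequenced MiSeq chips, were imaged over ~14 h at 37 °C using a hybridised Cy3 probe. Glucosamine-6-phosphate was supplied at 40 μM to 10 mM in HEPES/KCl/Mg(OAc)2 buffer. kobs came from one- or two-exponential decay fits to normalised per-tile medians, and weighted Michaelis–Menten fits then provided kcat and KM.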

glucosamine-6-phosphate [2] = variants of: B1; assay: KM; higher = weaker cofactor use; RNA array
In short: as §1

glucosamine-6-phosphate [3] = variants of: B1; assay: self-cleavage kobs at 160 uM GlcN6P; higher = faster cleavage; RNA array
In short: as §1

glucosamine-6-phosphate [4] = variants of: B1; assay: self-cleavage kobs at 10000 uM GlcN6P; higher = faster cleavage; RNA array
In short: as §1

glucosamine-6-phosphate [5] = variants of: B1; assay: self-cleavage kobs at 640 uM GlcN6P; higher = faster cleavage; RNA array
In short: as §1

glucosamine-6-phosphate [6] = variants of: B1; assay: self-cleavage kobs at 2500 uM GlcN6P; higher = faster cleavage; RNA array
In short: as §1

glucosamine-6-phosphate [7] = variants of: B1; assay: self-cleavage kobs at 40 uM GlcN6P; higher = faster cleavage; RNA array
In short: as §1

Variant	kcat (glucosamine-6-phosphate [1]) [s⁻¹]	KM (glucosamine-6-phosphate [2]) [µM]	self-cleavage kobs at 160 uM GlcN6P (glucosamine-6-phosphate [3]) [s⁻¹]	self-cleavage kobs at 10000 uM GlcN6P (glucosamine-6-phosphate [4]) [s⁻¹]	self-cleavage kobs at 640 uM GlcN6P (glucosamine-6-phosphate [5]) [s⁻¹]	self-cleavage kobs at 2500 uM GlcN6P (glucosamine-6-phosphate [6]) [s⁻¹]	self-cleavage kobs at 40 uM GlcN6P (glucosamine-6-phosphate [7]) [s⁻¹]
A12C G44C	4.97e-05 ± 2.4e-06	4150 ± 610	< 1e-05	3.51e-05 ± 7.6e-06			
A12C G44A	0.000291 ± 2.6e-05	1580 ± 270		0.00024 ± 3.8e-05	8.35e-05 ± 1.2e-05	0.000204 ± 4e-05	
A12C U69A	0.000833 ± 0.00013	4330 ± 1100		0.000614 ± 9.4e-05	0.000117 ± 2.1e-05	0.00027 ± 4.6e-05	
A12U C67G	0.00362 ± 0.00062	791 ± 210	0.000542 ± 0.00011	0.00426 ± 0.00054	0.0015 ± 0.00029	0.00226 ± 0.00035	0.00019 ± 2.1e-05
A12C G37A	0.00391 ± 0.0011	2210 ± 860	0.000248 ± 4e-05	0.00402 ± 0.00063	0.000756 ± 0.00011	0.00182 ± 0.00028	8.92e-05 ± 1.1e-05
A12U U69G C70G	2.63e-05 ± 1.3e-05		< 1e-05				
A12U A39C	0.00341 ± 0.00095	2770 ± 1100	0.000149 ± 2.7e-05	0.00266 ± 0.00035	0.000656 ± 8.7e-05	0.00163 ± 0.00023	9.51e-05 ± 1.7e-05
A12C G13C	6.35e-05 ± 2.1e-06	1030 ± 240		5.73e-05 ± 7.8e-06		4.89e-05 ± 2.3e-05	
A12G A48G	2.09e-05 ± 3.3e-06						< 1e-05
A12U A48U C70A	5.26e-05 ± 1.7e-05			4.16e-05 ± 1.5e-05		6.36e-05 ± 2e-05	
G13A C68U	6.42e-05 ± 2.2e-06	234 ± 85		6.26e-05 ± 5.5e-06	5.07e-05 ± 1.2e-05	5.81e-05 ± 9e-06	
A12U U46G	0.023 ± 0.007	2700 ± 1100		0.0167 ± 0.0047	0.00656 ± 0.0018	0.0119 ± 0.0035	0.000297 ± 7.2e-05
A12U C58U	7.97e-05 ± 5.4e-06	662 ± 220		7.81e-05 ± 1.1e-05	4.45e-05 ± 1.4e-05	5.86e-05 ± 9.3e-06	< 1e-05
A12U C58G	0.0011 ± 0.00023	6470 ± 2000	2.07e-05 ± 6e-06	0.000677 ± 6.4e-05	0.000109 ± 1.2e-05	0.000287 ± 3e-05	
A12U C67G C68G	4.76e-05 ± 1.4e-05		7.57e-05 ± 3.2e-05		6.79e-05 ± 1.9e-05	4.47e-05 ± 1.5e-05	
C11U G29C C50G C68G	7.23e-05 ± 1.9e-05		0.000134 ± 2.7e-05	5.44e-05 ± 1e-05	7.71e-05 ± 2.1e-05	9.67e-05 ± 1.5e-05	
C11U C70U	0.000987 ± 0.00026	772 ± 320	0.000165 ± 2.1e-05	0.00165 ± 0.00027	0.000397 ± 3.7e-05	0.000735 ± 9.1e-05	5.88e-05 ± 6.9e-06
C11U G40U	0.000224 ± 2.2e-05	3980 ± 910		0.000159 ± 1.6e-05	2.87e-05 ± 7.5e-06	0.000111 ± 3.6e-05	
G13A C50G C61G G66U	0.000136 ± 9.6e-06	17.2 ± 6.7	0.000112 ± 3.4e-05	0.000126 ± 2.6e-05	0.000165 ± 5.4e-05	0.000149 ± 3.8e-05	9.58e-05 ± 1.7e-05
A12G G40C	0.000334 ± 3.5e-05	3830 ± 720		0.000248 ± 3.1e-05	5.37e-05 ± 1e-05	0.000124 ± 1.6e-05	
C11U U45C	9.44e-05 ± 1.8e-05			7.59e-05 ± 1e-05		6.5e-05 ± 1.3e-05	
G13A A14U	0.000964 ± 0.00014	3120 ± 800	5.13e-05 ± 1.1e-05	0.000781 ± 8e-05	0.000184 ± 2.9e-05	0.000365 ± 5e-05	
G13A A14C	0.000465 ± 2.9e-05	2440 ± 230	2.93e-05 ± 1e-05	0.000353 ± 8.7e-05	9.47e-05 ± 1.2e-05	0.000245 ± 3.2e-05	
A12U G41U	0.0013 ± 0.00058		0.00041 ± 5.1e-05		0.000814 ± 8.1e-05	0.00212 ± 0.00022	0.000239 ± 2.1e-05
A12U U30A	0.0401 ± 0.009	1980 ± 540		0.0321 ± 0.007	0.0124 ± 0.0029		0.000782 ± 0.00011
A12U U30G	0.0227 ± 0.0046	983 ± 280		0.0211 ± 0.0039	0.00794 ± 0.0013	0.0279 ± 0.0091	0.000931 ± 0.00012
A12U C16G G40C	0.000662 ± 7.1e-05	3490 ± 700		0.000481 ± 9.8e-05	9.91e-05 ± 3.2e-05	0.000322 ± 0.00011	
A12G U46G	0.000475 ± 2.8e-05	9040 ± 890		0.000248 ± 2.3e-05	2.82e-05 ± 1.2e-05	0.000105 ± 1.5e-05	
A12G U69G	7.83e-05 ± 2.6e-06	285 ± 71		7.47e-05 ± 1.1e-05	5.05e-05 ± 1.9e-05	7.46e-05 ± 1.5e-05	

Source: the supplement of paper PMC7125110
